These results are taken from US20210079109A1 (Regeneron, published 2021).

The chains are these.
T1: human CD63 (human, UniProt P08962 2-238)
T1 sequence: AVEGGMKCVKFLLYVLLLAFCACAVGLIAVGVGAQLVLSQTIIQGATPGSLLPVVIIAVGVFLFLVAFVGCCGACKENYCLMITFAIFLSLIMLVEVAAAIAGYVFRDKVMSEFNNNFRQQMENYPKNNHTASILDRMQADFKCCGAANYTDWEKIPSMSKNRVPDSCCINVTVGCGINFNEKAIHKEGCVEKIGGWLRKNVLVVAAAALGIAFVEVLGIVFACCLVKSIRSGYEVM

B1: H1M12390N (antibody, V domains shown)
VH: QVHLVESGGGLVKPGGSLRLSCAASGFIFSDYYMSWIRQAPGKGLEWVSYIRGSGYNADSVQGRFTISRDNAKNSLFLQMNSLRAEDTAVYYCARGYSFGYGFFDYWGQGTLVTVSS
VL: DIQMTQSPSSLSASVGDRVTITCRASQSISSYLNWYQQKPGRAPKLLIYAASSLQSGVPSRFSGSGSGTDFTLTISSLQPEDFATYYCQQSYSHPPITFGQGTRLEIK
B2: H2M12392N (antibody, V domains shown)
VH: QVQLVESGGGLVKPGGSLRLSCATSGFTFGDYYMNWFRQAPGKGLDWVSYISSSGSTRYYADSVRGRFTISRDNAKNSLYLQMNSLRAEDTAVYYCVRDLRYYYGMDVWGQGTTVTVSS
VL: not shown
notes: also called H2aM12392N
B3: H2M12454N (antibody, V domains shown)
VH: QVQLVESGGGLVKPGGSLRLSCAVSGFTYTDYFMNWIRQAPGKGLEWVSYISNSGAIKYYADSVKGRFTISRDNAKNSLYLQMNGLRADDTAVYYCVRDPRSYYGFDYWGQGTLVTVSS
VL: DIQMTQSPSSLSASVGDRVTITCRASQSISNFLNWYQQKPGKAPRLLIYGASNLQSGVPSRFSGGGSGTDFTLTISSLQPADFATYYCQQSFSNPPVTFGQGTRLEIN
notes: also called H2bM12454N
B4: H2M12385N (antibody, V domains shown)
VH: B3 VH with V24A, Y29F, Y60Q, G85S
VL: B3 VL with S30R, G50A, N53S, A81E, F92Y, V97I, N108K
notes: also called H2bM12385N; H2bM12385
B5: H4H12450N (antibody, V domains shown)
VH: QVQLQESGPKVVKPSETLSLTCTVSGGSISSYYWNWIRQSPGKGLEWIGYTKRGYTDYNPSLRSRVTISEDTSKNQFSLRISSVTAADTAVYYCAQMGWGSHAFDMWGQGTMVAVSS
VL: not shown

Substitutions are numbered along the chain they refer to.

T3 sequence (chain, as listed by the source limits assumed): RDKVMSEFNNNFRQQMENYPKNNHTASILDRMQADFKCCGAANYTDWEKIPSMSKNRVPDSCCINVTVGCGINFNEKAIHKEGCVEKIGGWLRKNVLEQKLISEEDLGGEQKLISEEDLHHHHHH

For one assay, the target named is T2, recombinant human CD63 extracellular loop 2 expressed with a C-terminal human Fc tag (human).
T2 construct: also called hCD63 EC loop 2-hFc; human CD63 EC loop 2-Fc
T2 sequence (chain, as listed by the source limits assumed): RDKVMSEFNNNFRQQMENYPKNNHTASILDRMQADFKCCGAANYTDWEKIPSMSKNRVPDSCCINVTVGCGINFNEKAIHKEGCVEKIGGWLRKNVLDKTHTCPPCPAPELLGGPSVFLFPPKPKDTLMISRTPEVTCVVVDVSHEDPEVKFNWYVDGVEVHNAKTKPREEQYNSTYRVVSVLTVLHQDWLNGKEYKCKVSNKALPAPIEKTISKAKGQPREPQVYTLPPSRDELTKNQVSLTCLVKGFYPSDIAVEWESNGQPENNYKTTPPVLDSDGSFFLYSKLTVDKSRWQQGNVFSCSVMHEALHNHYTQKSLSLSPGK
Put plainly: SPR Biacore, mAb captured, 37C. In short, it runs like this: (§1)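 Anti-CD63 mAbs captured on anti-mouse Fc or anti-human Fab surfaces; CD63 EC2 reagents flowed in HBS-ET, pH 7.4, at 25° C or 37° C. ka and kd from 1:1 binding model with mass transport limitation; KD and t½ calculated from kinetic rates.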
As to B1, the “100 nM Ag Bound (RU)” value was determined as 134 RU, the Kd came to 0.546 nM, the koff came out at 0.000495 s⁻¹ and the kon was 907000 M⁻¹ s⁻¹. For the same molecule, the t1/2 worked out at 23 min.

Take B2: the “100 nM Ag Bound (RU)” value was 177 RU, the dissociation constant Kd worked out at 0.582 nM, the koff came to 0.000445 s⁻¹ and the kon came out at 765000 M⁻¹ s⁻¹. Further, the t1/2 stood at 26 min.

As for B3, the “100 nM Ag Bound (RU)” value is 160 RU, the Kd is 0.895 nM, the off-rate (koff) was determined as 0.000777 s⁻¹ and the on-rate (kon) amounted to 868000 M⁻¹ s⁻¹. In addition, the t1/2 was 15 min.

B4: the “100 nM Ag Bound (RU)” value came out at 133 RU, the dissociation constant (Kd) came to 2.05 nM, the koff was determined as 0.0017 s⁻¹ and the on-rate (kon) was 827000 M⁻¹ s⁻¹. Also, the t1/2 is 7 min.

A further assay concerns the target T3, recombinant human CD63 extracellular loop 2 expressed with a C-terminal Myc-Myc-hexahistidine (human).
T3 construct: also called hCD63 EC loop 2-MMH; human CD63 EC loop 2-MMH
Put plainly: SPR Biacore, mAb captured, 37C. An outline of the steps: as §1
As for B1, the “100 nM Ag Bound (RU)” value was determined as 38 RU, the equilibrium dissociation constant (Kd) was determined as 35.6 nM, the koff was determined as 0.0149 s⁻¹ and the on-rate (kon) is 419000 M⁻¹ s⁻¹. Moreover, the t1/2 amounted to 1 min.

Turning to B2, the “100 nM Ag Bound (RU)” value worked out at 68 RU, the dissociation constant (Kd) is 7.25 nM, the koff turned out to be 0.00324 s⁻¹ and the kon amounted to 447000 M⁻¹ s⁻¹. Also, the t1/2 was 4 min.

For B3, the “100 nM Ag Bound (RU)” value was determined as 56 RU, the equilibrium dissociation constant (Kd) turned out to be 10.6 nM, the koff turned out to be 0.00591 s⁻¹ and the on-rate (kon) is 559000 M⁻¹ s⁻¹. Besides, the t1/2 came out at 2 min.

In the case of B4, the “100 nM Ag Bound (RU)” value was 44 RU, the Kd worked out at 40 nM, the koff was determined as 0.0109 s⁻¹ and the on-rate (kon) amounted to 271000 M⁻¹ s⁻¹. Besides, the t1/2 was determined as 1 min.

The target of a further assay is T1, human CD63. Description: cell-based or functional assay.
As to B5, the “% Internalization, T47D cells” value is 68.1% and the “Total Internalized RFU, T47D cells” value was 1.42e+06 RFU.

The target in another assay is T1, human CD63. Description: imaging of stained T47D cells, 10 ug/mL antibody. The procedure: To stain, quadruplicate plates of cells were incubated with 10 μg/mL of anti-CD63 antibodies that was diluted in 2% FBS in PBS, without Calcium and Magnesium (Irving, Cat #9240) (staining buffer) for 30 minutes at 4° C. […] Two plates were immediately fixed and stained with 4% paraformaldehyde (PFA; ThermoFisher, Cat #28908)+5 uM DRAQ5 (ThermoFisher, Cat #62251) in PBS for 20 minutes (non-internalization plates). The remaining two plates were incubated with growth media at 37° C. for 2 hours followed by fixation and staining for 20 minutes using a solution of 4% PFA+5 μM DRAQ5 diluted in PBS (internalization plates). After fixation, all plates were washed once with PBS. One non-internalization plate and one internalization plate were incubated with an anti-Alexa Fluor 488 antibody (Regeneron) at 50 μg/mL in PBS overnight at 4° C. to quench surface Alexa Fluor 488 fluorescence. The remaining plates were incubated with PBS only. Confocal images were acquired on the Opera Phenix (Perkin Elmer) at 40× magnification. Harmony analysis software (Perkin Elmer) was utilized to identify DRAQ5-labeled cells and the total Alexa-Fluor 488 relative fluorescent units (RFU) per cell was determined. The total binding at 4° C. (RFU values of 4° C. unquenched wells), total binding at 37° C. (RFU values of 37° C. unquenched wells), the total internalized RFU, and the % Internalization were determined for each antibody as shown in Table 1. For all calculations, background fluorescence from 2nd Ab only control wells were subtracted from every well. Total internalized RFU was calculated as follows: Total RFU of 37° C. unquenched samples−Surface RFU at 37° C. Surface RFU is defined as unquenched RFU at 37° C.−quenched RFU at 37° C.)/QE. QE (quenching efficiency) is defined as: 1−(Total RFU of 4° C. quenched sample/Total RFU of 4° C. unquenched sample). The % Internalization was determined from the following formula: (Total internalized RFU at 37° C./Total RFU at 37° C.)*100.
For B5, the “Total RFU at 4C” value was 2.1e+06 RFU and the “Total RFU at 37C (2 h)” value was 2.08e+06 RFU.

The target in the next assay is T1, human CD63. Put plainly: ECL, U87MG cells. An outline of the steps: (§2)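 Detached cells (~2.0×10⁴/well: NIH3T3/hCD63, LNCAP, U87MG, or parental NIH3T3 as negative control) were plated on carbon-electrode plates and blocked with 2% BSA. Anti-CD63 or isotype antibodies (1.7 pM–100 nM, in duplicate) were bound 1 h at RT, then washed. Signal read as electrochemiluminescence.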
As to B1, the EC50 came to 0.36 nM and the “binding ratio at 3.7 nM vs NIH3T3” value stood at 339 fold.

Regarding B2, the EC50 was determined as 0.53 nM and the “binding ratio at 3.7 nM vs NIH3T3” value was found to be 405 fold.

Regarding B3, a half-maximal effect (EC50) was put at 0.47 nM and the “binding ratio at 3.7 nM vs NIH3T3” value stood at 132 fold.

Take B4: a half-maximal effect (EC50) was put at 0.64 nM and the “binding ratio at 3.7 nM vs NIH3T3” value was determined as 47 fold.

A further assay has as its target T2, recombinant human CD63 extracellular …. Description: SPR Biacore, mAb captured, 25C. An outline of the steps: as §1
Take B1: the “100 nM Ag Bound (RU)” value was determined as 150 RU, the Kd turned out to be 1.89 nM, the off-rate (koff) came out at 0.000991 s⁻¹ and the kon worked out at 523000 M⁻¹ s⁻¹. Moreover, the t1/2 amounted to 12 min.

For the molecule B2, the “100 nM Ag Bound (RU)” value worked out at 169 RU, the equilibrium dissociation constant (Kd) worked out at 0.391 nM, the koff was 0.000199 s⁻¹ and the kon worked out at 510000 M⁻¹ s⁻¹. The t1/2 came out at 58 min.

Regarding B3, the “100 nM Ag Bound (RU)” value was found to be 142 RU, the dissociation constant (Kd) is 0.523 nM, the koff amounted to 0.00036 s⁻¹ and the on-rate constant (kon) came to 688000 M⁻¹ s⁻¹. Also, the t1/2 was found to be 32 min.

For the molecule B4, the “100 nM Ag Bound (RU)” value came to 121 RU, the dissociation constant (Kd) came to 1.66 nM, the koff turned out to be 0.000984 s⁻¹ and the kon is 592000 M⁻¹ s⁻¹. In addition, the t1/2 amounted to 12 min.

The next assay deals with T3, recombinant human CD63 extracellular …. Description: SPR Biacore, mAb captured, 25C. An outline of the steps: as §1
Consider B1, for which the “100 nM Ag Bound (RU)” value is 54 RU, the Kd was 10.4 nM, the off-rate (koff) was determined as 0.00336 s⁻¹ and the kon is 323000 M⁻¹ s⁻¹. For the same molecule, the t1/2 amounted to 3 min.

On to B2, for which the “100 nM Ag Bound (RU)” value was 79 RU, the equilibrium dissociation constant (Kd) stood at 3.1 nM, the koff worked out at 0.000922 s⁻¹ and the kon was determined as 298000 M⁻¹ s⁻¹. For the same molecule, the t1/2 worked out at 13 min.

For B3, the “100 nM Ag Bound (RU)” value was found to be 61 RU, the Kd stood at 4.89 nM, the koff came to 0.00188 s⁻¹ and the kon came out at 384000 M⁻¹ s⁻¹. The t1/2 came out at 6 min.

Regarding B4, the “100 nM Ag Bound (RU)” value came out at 48 RU, the dissociation constant (Kd) amounted to 10.3 nM, the koff came to 0.00331 s⁻¹ and the on-rate constant (kon) is 322000 M⁻¹ s⁻¹. The t1/2 worked out at 3 min.

The target in the next assay is T1, human CD63. Description: ECL, NIH3T3/hCD63 cells. An outline of the steps: as §2
Take B1: the concentration for a half-maximal effect (EC50) amounted to 0.48 nM and the “binding ratio at 3.7 nM vs NIH3T3” value was 559 fold.

For B2, the 50% effective concentration (EC50) was 0.4 nM and the “binding ratio at 3.7 nM vs NIH3T3” value turned out to be 608 fold.

In the case of B3, the EC50 stood at 0.32 nM and the “binding ratio at 3.7 nM vs NIH3T3” value turned out to be 175 fold.

Consider B4, for which the EC50 was found to be 0.45 nM and the “binding ratio at 3.7 nM vs NIH3T3” value was 71 fold.

The next assay concerns the target T1, human CD63. Put plainly: ECL, LNCAP cells. In short, it runs like this:
as §2
In the case of B1, the response was half-maximal at 0.3 nM (EC50) and the “binding ratio at 3.7 nM vs NIH3T3” value was determined as 31 fold.

For the molecule B2, the EC50 was 0.23 nM and the “binding ratio at 3.7 nM vs NIH3T3” value is 51 fold.

Consider B3, for which it took 0.18 nM to reach a half-maximal effect (EC50) and the “binding ratio at 3.7 nM vs NIH3T3” value was 14 fold.

Turning to B4, the midpoint of the response, the EC50, lay at 0.29 nM and the “binding ratio at 3.7 nM vs NIH3T3” value turned out to be 5 fold.
